Data set [1] in a line: Brightness and relative specificity of 9B8 and 9B8 opt+K33N variants in E. coli lysates. The class given is biochemical. The following applies: for Fold over coelenterazine / Fold over 9B8: bacterial lysates; for Fold over coelenterazine: PBI-3939 luminescence divided by native coelenterazine luminescence; for Fold over 9B8: luminescence normalized to 9B8 opt. Here is the method: Additional variants with improved relative specificity to novel PBI-3939 were generated as described previously by saturating amino acid positions 18, 68, 72, 75, and 90 in variant 9B8. […] Relative specificity was determined from the ratio of the luminescence of the variant with PBI-3939 to the luminescence of the variant with native coelenterazine, normalized to the ratio of corresponding luminescence of 9B8. Table 8 lists 9B8 variants (“Variant”) with at least 1.1× fold-increase in relative specificity for PBI-3939. […] 9B8 variants with amino acid substitutions K, D, F, G, Y, W, and H at position 18 had the highest fold improvement in relative specificity.
A new OgLuc library was created using 9B8opt+K33N as a starting template. The random library was created using DIVERSIFY® PCR Random Mutagenesis Kit (ClonTech; Catalog #630703). Condition 5 (as listed in the user manual) was used to generate additional variants, and the average mutation rate was calculated to be 2.6 mutations per gene by compiling sequence data from 83 randomly selected clones. This PCR library was cloned into the pF4Ag-based, non-fusion vector background described previously and the sandwich background, i.e., Id-OgLuc-HT7 (described in Example 45). Variants in the pF4Ag-base non-fusion vector background are designated with (NF). Variants in the sandwich vector background are designated with (F). In order to clone the PCR product into both vectors, an amino acid, i.e., a glycine, was appended to the variant sequence in pF4Ag, generating a new position 170 in the OgLuc variant (“170G”). The 170G is present in the sandwich construct, but in this case is considered part of the linker between OgLuc and HT7. For each library, 4,400 E. coli clones were assayed as described previously with the following exceptions. […] The assay buffer contained 100 mM MES pH 6.0 instead of HEPES, and 35 mM thiourea. The assay volumes were as follows: 10 μL cells, 40 μL lysis buffer, and 50 μL assay buffer.
Based on the above data, further combination variants were designed and generated (see Table 10) in the context of the pF4Ag-based non-fusion vector background without the 170G. The variants were analyzed in E. coli, HEK293 and NIH3T3 cells as described above and compared to 9B8 opt+K33N. The variants were also examined for luminescence with native coelenterazine.
E. coli lysates containing the variants were prepared and analyzed as described previously. Luminescence generated from the lysates was measured using the novel PBI-3939 and native coelenterazine as substrates. The luminescence of the variants was normalized to the luminescence generated by 9B8 opt (Table 12). The relative specificity of the variants for PBI-3939 and native coelenterazine was calculated by dividing the luminescence of the variants using PBI-3939 as a substrate with the luminescence of the variants using native coelenterazine as a substrate (Table 12).

The format of data set [2] is biochemical, E. coli. Here is the method:
The signal stability of 15C1 with PBI-3945 and 9B8 with PBI-3889 was measured and compared to IV. E. coli containing plasmid DNA encoding 15C1, 9B8, or IV were grown and induced as described previously in 8-well replicates. Cells were lysed using a lysis buffer containing of 300 mM HEPES pH 8.0, 0.3× Passive Lysis Buffer (“PLB”; Promega Corp. Cat. No. E194A), 0.3 mg/mL lysozyme, and 0.003 U/μL RQ1 DNase. Lysates were diluted 1:1000 in lysis buffer and measured for luminescence using a TECAN® INFINITE® F500 luminometer. Measurements were taken immediately after the addition to 10 μL of diluted lysate sample of 50 μL of “Glo” 0.5% TERGITOL assay buffer (“0.5% TERGITOL”), which contained 150 mM KCl, 1 mM CDTA, 10 mM DTT, 100 mM thiourea, 0.5% TERGITOL® NP-9 (v/v), and 20 μM of either novel coelenterazines PBI-3945 or PBI 3889.
The signal stability of the variants was determined by re-reading the plate every 30 seconds for a length of time after the addition of the assay buffer to the sample. The signal half-life was determined from these measurements using methods known in the art. The average signal half-life was compared between the variants and IV. […] At t=10 min, luminescence for 15C1 with PBI-3945 and 9B8 with PBI-3889 were equivalent.
E. coli lysates containing the variants were prepared and analyzed as described previously except the assay buffer contained 0.25% TERGITOL® NP-9 (v/v), 100 mM MES pH 6.0, 1 mM CDTA, 150 mM KCl, 35 mM thiourea, 2 mM DTT, and 20 μM PBI-3939.

Data set [3] concerns cAMP-response element (CRE). The experiment in a line: cAMP transcriptional reporter in HEK293 cells (Example 36). The following applies: for fold-induction: FSK 5 hrs.

The record followed here is patent US8809529B2, “Imidazo[1,2-α]pyrazine derivatives” (Promega Corporation, priority 2010, dated 2014).

Substitutions are numbered along the chain they refer to. Names may count otherwise.

B1: L27V: 9B8 opt+K33N variant with L27V, T39T, K43R, Y68D (protein)
chain: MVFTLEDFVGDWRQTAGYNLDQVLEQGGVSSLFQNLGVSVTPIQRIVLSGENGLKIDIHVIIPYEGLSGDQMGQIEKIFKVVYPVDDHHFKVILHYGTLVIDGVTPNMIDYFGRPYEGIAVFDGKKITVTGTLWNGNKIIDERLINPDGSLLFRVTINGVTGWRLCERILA
On to B1, for which, in data set [1], the Fold over coelenterazine amounted to 110 and the “Fold over 9B8” value came out at 1.8. Also, in data set [1] (luminescence, PBI-3939), the “Fold over 9B8 opt + K33N: E. coli” value is given as 0.9. The “Fold over Native Coelenterazine: E. coli” value in data set [1] (relative specificity for PBI-3939) is on record as 85.2. The “signal half life” value in data set [2] turned out to be 1.9 h.

B2: 9B8: IV variant with Q18L, F68Y, L72Q, M75K; in Tables 12, 22, 23, 26, 27 “9B8” stands for 9B8 opt (protein)
chain: B1 chain with V29L, N35K, R45K, D70Y
Turning to B2, in data set [1], the Fold over coelenterazine is on record as 7 and the “Fold over 9B8” value is recorded as 1.0. In addition, in data set [2], the “signal half life” value came to 1.23 h and the signal half-life entry was “at least 30 min”.

B3: 9B8 opt: codon optimized version of the 9B8 variant (protein)
chain: B1 chain with V29L, N35K, R45K, D70Y
As for B3, the “induced luminescence higher than Luc2 transcriptional reporter” value in data set [3] is on record as “approximately 1.5 logs”. In addition, in data set [3], the “induced luminescence higher than induced Renilla transcriptional reporter” value is listed as “approximately 2.5 logs”. In addition, the fold-induction in data set [3] (30 ng of DNA) is reported as 360; in data set [3] (100 ng of DNA), 109.
